The text below walks through data of patent US20200165308A1 (published 2020).

This experiment has as its target Netrin-1 (NET1) from Mus musculus lacking the C-terminal domain (NP_032770, aa: 24-457) (Mus musculus, UniProt O09118 24-457). The experiment can be described thus: solid-phase binding assay.

Broadly, the Kd is the concentration at which binding is half-saturated. High values mean lower affinity, low ones higher affinity.

B1: full-length ectodomain of NEO1 (AAH54540, aa: 41-1107) (receptor)
chain: GAAATKSGSPPQSAGASVRTFTPFYFLVEPVDTLSVRGSSVILNCSAYSEPSPNIEWKKDGTFLNLESDDRRQLLPDGSLFISNVVHSKHNKPDEGFYQCVATVDNLGTIVSRTAKLTVAGLPRFTSQPEPSSVYVGNSAILNCEVNADLVPFVRWEQNRQPLLLDDRIVKLPSGTLVISNATEGDGGLYRCIVESGGPPKFSDEAELKVLQDPEEIVDLVFLMRPSSMMKVTGQSAVLPCVVSGLPAPVVRWMKNEEVLDTESSGRLVLLAGGCLEISDVTEDDAGTYFCIADNGNKTVEAQAELTVQVPPGFLKQPANIYAHESMDIVFECEVTGKPTPTVKWVKNGDVVIPSDYFKIVKEHNLQVLGLVKSDEGFYQCIAENDVGNAQAGAQLIILEHDVAIPTLPPTSLTSATTDHLAPATTGPLPSAPRDVVASLVSTRFIKLTWRTPASDPHGDNLTYSVFYTKEGVARERVENTSQPGEMQVTIQNLMPATVYIFKVMAQNKHGSGESSAPLRVETQPEVQLPGPAPNIRAYATSPTSITVTWETPLSGNGEIQNYKLYYMEKGTDKEQDIDVSSHSYTINGLKKYTEYSFRVVAYNKHGPGVSTQDVAVRTLSDVPSAAPQNLSLEVRNSKSIVIHWQPPSSTTQNGQITGYKIRYRKASRKSDVTETLVTGTQLSQLIEGLDRGTEYNFRVAALTVNGTGPATDWLSAETFESDLDETRVPEVPSSLHVRPLVTSIVVSWTPPENQNIVVRGYAIGYGIGSPHAQTIKVDYKQRYYTIENLDPSSHYVITLKAFNNVGEGIPLYESAVTRPHTVPDPTPMMPPVGVQASILSHDTIRITWADNSLPKHQKITDSRYYTVRWKTNIPANTKYKNANATTLSYLVTGLKPNTLYEFSVMVTKGRRSSTWSMTAHGATFELVPTSPPKDVTVVSKEGKPRTIIVNWQPPSEANGKITGYIIYYSTDVNAEIHDWVIEPVVGNRLTHQIQELTLDTPYYFKIQARNSKGMGPMSEAVQFRTPKALGSAGKGSRLPDLGSDYKPPMSGSNSPHGSPTSPLDSN
As to B1, the affinity, expressed as Kd, was 7.58 nM.
